Experiment [1] addresses T1, human Fes SH2-kinase unit (residues I448 to the C terminus), autophosphorylated on Y713 (human, UniProt P07332-1 448-822, phosphotyrosine at 713).
T1 construct: Fes tyrosine kinase, human, NP_001996; Crystallised with staurosporine; also called pY713-Fes; phosphorylated Fes; source: E. coli BL21(DE3)-R3, coexpressed with YopH, purified; autophosphorylated in vitro, purified by gel filtration
Kind of experiment: crystal structure; sitting drops; Fes SH2-kinase with staurosporine (1 mM) and peptide Ac-IYESL (250-300 uM); form II from 20% PEG 3350, 0.1 M sodium malate; form III from 30% mPEG 2000, 0.15 M NaBr. The conditions noted are these: both partners purified.

In experiment [2] the target is T2, human Fes SH2-kinase unit (residues I448 to the C terminus), unphosphorylated (human, UniProt P07332-1 448-822).
T2 construct: Fes tyrosine kinase, human, NP_001996; linker N terminal to the SH2 domain, SH2 domain and C-terminal kinase domain; residues I448 to the C terminus; Crystallised with staurosporine; also called SH2-kinase polypeptide; unphosphorylated Fes; source: E. coli BL21(DE3)-R3, coexpressed with YopH tyrosine phosphatase, purified
The experiment is described as above. The conditions noted are these: both partners purified.

Consider 1 molecule from article PMC2572732, “Structural Coupling of SH2-Kinase Domains Links Fes and Abl Substrate Recognition and Kinase Activation” (Cell, 2008).

No end group written: not given here.

T2 sequence (P07332 448-822): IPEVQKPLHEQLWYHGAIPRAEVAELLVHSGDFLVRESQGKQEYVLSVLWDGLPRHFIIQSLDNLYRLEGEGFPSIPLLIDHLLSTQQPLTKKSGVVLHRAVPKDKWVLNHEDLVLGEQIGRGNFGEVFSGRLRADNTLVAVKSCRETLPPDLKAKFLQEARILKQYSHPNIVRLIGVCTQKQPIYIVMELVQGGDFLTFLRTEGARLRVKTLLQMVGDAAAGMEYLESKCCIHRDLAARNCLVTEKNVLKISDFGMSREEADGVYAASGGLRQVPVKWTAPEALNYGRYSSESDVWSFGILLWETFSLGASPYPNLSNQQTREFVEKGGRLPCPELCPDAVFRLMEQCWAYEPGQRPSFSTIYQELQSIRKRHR
T1 sequence (P07332 448-822): as above

B1: Fes kinase consensus substrate peptide Ac-IYESL (peptide)
peptide: Ac-IYESL
notes: consensus substrate peptide of the Fes kinase, derived from peptide library and array screens; also called consensus peptide; source: synthetic peptide
As to B1, the binding result in experiment [1] and in experiment [2] was “binds” in each case.
